Laboratory results taken from article doi:10.1101/639948 (bioRxiv, 2019).

B1: Sam50 (natural protein)
chain: MGTVHARSLEPLPSSGTDFGALGEEAEFVEVEPEAKQEILENKDVVVQHVHFDGLGRTKDDIIICEIGEVFKAKNLIEVMRRSHEAREKLLRLGIFRQVDVLIDTCHGEDALPNGLDVTFEVTELRRLTGSYNTMVGNNEGSMVLGLKLPNLLGRAEKVTFQFSYGTKETSYGLSFFKPQPGNFERNFSVNLYKVTGQFPWSSLRETDRGVSAEYSFPLWKTSHTVKWEGVWRELGCLSRTASFAVRKESGHSLKSSLSHAMVIDSRNSSILPRRGALFKVNQELAGYTGGDVSFIKEDFELQLNKPLALDSVFSTSLWGGMLVPIGDKPSSIADRFYLGGPTSVRGFSMHSIGPQSEGDYLGGEAYWAGGLHLYTPLPFRPGQGGFGELFRTHFFLNAGNLCNLNYGEGPKAHIRKLAECIRWSYGAGVVLRLGNIARLELNYCIPMGVQGGDRICDGVQFGAGIRFL
B2: Mic19/CHCHD3 (natural protein)
chain: MGGTASTRRVTFEADENENITVVKGIRLSENVIDRMKESSPSGSKSQRYSSVYGASVSDEDLKRRVAEELALEQAKKESEHQRRLKQARDLERERAAANEQLTRAVLRERISSEEERMKAKHLARQLEEKDRVMRKQDAFYKEQLARLEERSSEFYKVTTEEYQKAAEEVEAKFKRYEYHPVCADLQTKILQCYRQNTQQTLSCSALASQYMHCVNHAKQSMLEKGG

Target: native Miro2 (UniProt Q8JZN7 1-620)
Sequence (Q8JZN7 whole entry): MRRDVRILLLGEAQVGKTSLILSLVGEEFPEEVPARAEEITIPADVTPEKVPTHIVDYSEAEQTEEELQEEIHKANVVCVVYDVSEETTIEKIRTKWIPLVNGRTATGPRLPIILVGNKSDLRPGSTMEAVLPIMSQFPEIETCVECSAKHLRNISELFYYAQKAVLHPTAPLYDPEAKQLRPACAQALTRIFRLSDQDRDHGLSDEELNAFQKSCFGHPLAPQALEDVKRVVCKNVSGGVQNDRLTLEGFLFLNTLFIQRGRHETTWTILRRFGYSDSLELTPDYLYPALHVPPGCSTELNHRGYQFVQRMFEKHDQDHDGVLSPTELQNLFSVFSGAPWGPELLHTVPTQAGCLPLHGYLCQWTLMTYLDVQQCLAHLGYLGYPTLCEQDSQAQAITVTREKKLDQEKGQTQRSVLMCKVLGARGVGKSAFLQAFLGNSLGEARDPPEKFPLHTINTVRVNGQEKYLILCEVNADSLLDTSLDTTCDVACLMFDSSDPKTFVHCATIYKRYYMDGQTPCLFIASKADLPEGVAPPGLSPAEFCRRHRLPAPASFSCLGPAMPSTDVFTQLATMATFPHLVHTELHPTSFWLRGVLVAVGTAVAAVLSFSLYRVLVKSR
Assay: proximity ligation

Row | Binder | fold enrichment of PLA signal over single antibodies
1 | B1 | 4 fold
2 | B2 | 4 fold
